Broadly, the Kd is the constant that tells how readily two partners part at equilibrium. For orientation: koff means the rate constant with which the complex falls apart. Low readings indicate slow dissociation, high ones fast dissociation. By kon is commonly meant the second-order rate constant of association. A lower kon goes with slow association.

The target in experiment [1] is purified human BACE1 ectodomain (human) (UniProt P56817). Put plainly: SPR; BIAcore; 2,500 RU purified BACE1 ectodomain amine-coupled to a CM5 chip; VHHs injected at 0–500 nM, 25°C; citrate buffer with 150 mM NaCl, 3.5 mM EDTA, 0.005% Tween-20 at pH 4.5.
The target of a further experiment is T1, mouse BACE2 (Mus musculus, UniProt Q9JL18).
T1 construct: mouse BACE2; also called mBACE2
Put plainly: BLI; OctetRED96; biotinylated human or mouse BACE1 immobilised at 1 μg/ml on streptavidin biosensors; serial dilutions of VHH-B9 (table: Conc. 100 nM); Kinetic Buffer, 25°C, 1,000 rpm; 1:1 fitting model. The settings on record: both partners purified. A general note: BLI is a label-free optical method that tracks binding on a fibre tip over time.

Experiment [2] concerns the target human BACE1 (amino acids 1–460) fused to the constant region of human IgG1 (hBACE1:Fc), wild type (Homo sapiens, UniProt P56817). The experiment can be described thus: cell-based or functional assay.
The target of experiment [3] is T2, biotinylated mouse BACE1 (Mus musculus, UniProt P56818, biotin). The experiment can be described thus: cell-based or functional assay.
A further experiment concerns the target T3, biotinylated human BACE1 (Homo sapiens, UniProt P56817, biotin).
T3 construct: human BACE1, biotinylated and immobilised on streptavidin biosensors; Probably an ectodomain preparation; also called hBACE1; biotinylated BACE1
The experiment can be described thus: BLI; OctetRED96; biotinylated human or mouse BACE1 immobilised at 1 μg/ml on streptavidin biosensors; serial dilutions of VHH-B9 (table: Conc. 100 nM); Kinetic Buffer, 25°C, 1,000 rpm; 1:1 fitting model. The settings on record: both partners purified.

Experiment [4] deals with T2, biotinylated mouse BACE1. The description is as above. Particulars: both partners purified.
For experiment [5], the target named is purified human BACE1 ectodomain (human) (UniProt P56817). The experiment can be described thus: SPR; BIAcore; 2,500 RU purified BACE1 ectodomain amine-coupled to a CM5 chip; VHHs injected at 0–500 nM, 30 μl/min, 25°C; HBS buffer (10 mM Hepes (pH 7.5), 150 mM NaCl, 3.5 mM EDTA, 0.005% Tween-20); table gives pH 7.0. Background: SPR reads the build-up and loss of mass on a sensor chip optically.

Experiment [6] addresses human BACE1 (amino acids 1–460) fused to the constant region of human IgG1 (hBACE1:Fc), wild type (human) (UniProt P56817).

T2 sequence (P56818 46-501): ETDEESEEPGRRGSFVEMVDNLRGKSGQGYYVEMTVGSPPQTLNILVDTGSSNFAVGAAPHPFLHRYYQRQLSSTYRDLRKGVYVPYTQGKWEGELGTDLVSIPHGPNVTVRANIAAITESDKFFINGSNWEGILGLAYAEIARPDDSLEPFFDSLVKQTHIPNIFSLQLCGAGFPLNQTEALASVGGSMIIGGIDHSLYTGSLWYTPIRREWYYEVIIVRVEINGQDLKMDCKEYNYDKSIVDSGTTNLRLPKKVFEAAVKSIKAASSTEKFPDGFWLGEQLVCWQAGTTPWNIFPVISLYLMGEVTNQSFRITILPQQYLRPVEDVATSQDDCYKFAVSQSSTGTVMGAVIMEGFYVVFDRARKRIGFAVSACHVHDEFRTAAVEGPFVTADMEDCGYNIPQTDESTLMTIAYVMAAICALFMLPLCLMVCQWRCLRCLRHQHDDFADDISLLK
T3 sequence (P56817 46-501): as the sequence (P56818 46-501) above, with S6P, I162V, I165L, T180S, A182V, V340I, A393L, H443Q counted along it
Sequence of purified human BACE1 ectodomain (human) (P56817 22-457): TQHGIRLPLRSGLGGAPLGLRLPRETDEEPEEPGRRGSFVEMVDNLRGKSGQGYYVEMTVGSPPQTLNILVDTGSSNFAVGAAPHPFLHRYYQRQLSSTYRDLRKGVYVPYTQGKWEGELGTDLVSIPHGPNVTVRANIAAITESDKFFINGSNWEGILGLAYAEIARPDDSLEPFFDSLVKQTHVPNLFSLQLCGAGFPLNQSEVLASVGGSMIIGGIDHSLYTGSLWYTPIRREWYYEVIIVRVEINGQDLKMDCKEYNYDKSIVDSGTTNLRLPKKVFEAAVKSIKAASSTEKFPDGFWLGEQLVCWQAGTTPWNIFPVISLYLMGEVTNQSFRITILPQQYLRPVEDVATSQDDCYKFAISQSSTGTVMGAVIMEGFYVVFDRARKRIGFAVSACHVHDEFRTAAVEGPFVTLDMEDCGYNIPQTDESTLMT
Sequence of human BACE1 (amino acids 1–460) fused to the constant region of human IgG1 (hBACE1:Fc), wild type (human) (P56817 22-460): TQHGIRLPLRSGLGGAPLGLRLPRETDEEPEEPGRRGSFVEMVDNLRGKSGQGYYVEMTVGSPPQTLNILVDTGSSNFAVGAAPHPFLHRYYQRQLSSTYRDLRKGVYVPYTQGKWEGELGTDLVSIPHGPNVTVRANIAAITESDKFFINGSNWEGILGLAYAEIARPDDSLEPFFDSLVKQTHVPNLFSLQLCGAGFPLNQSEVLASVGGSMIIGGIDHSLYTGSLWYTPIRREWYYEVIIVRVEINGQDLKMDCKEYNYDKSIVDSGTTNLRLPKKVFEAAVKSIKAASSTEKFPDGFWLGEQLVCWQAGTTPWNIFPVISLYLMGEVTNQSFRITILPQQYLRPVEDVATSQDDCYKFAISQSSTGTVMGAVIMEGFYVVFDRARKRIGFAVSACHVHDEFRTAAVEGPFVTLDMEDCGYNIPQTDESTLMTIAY
T1 sequence (Q9JL18 20-514): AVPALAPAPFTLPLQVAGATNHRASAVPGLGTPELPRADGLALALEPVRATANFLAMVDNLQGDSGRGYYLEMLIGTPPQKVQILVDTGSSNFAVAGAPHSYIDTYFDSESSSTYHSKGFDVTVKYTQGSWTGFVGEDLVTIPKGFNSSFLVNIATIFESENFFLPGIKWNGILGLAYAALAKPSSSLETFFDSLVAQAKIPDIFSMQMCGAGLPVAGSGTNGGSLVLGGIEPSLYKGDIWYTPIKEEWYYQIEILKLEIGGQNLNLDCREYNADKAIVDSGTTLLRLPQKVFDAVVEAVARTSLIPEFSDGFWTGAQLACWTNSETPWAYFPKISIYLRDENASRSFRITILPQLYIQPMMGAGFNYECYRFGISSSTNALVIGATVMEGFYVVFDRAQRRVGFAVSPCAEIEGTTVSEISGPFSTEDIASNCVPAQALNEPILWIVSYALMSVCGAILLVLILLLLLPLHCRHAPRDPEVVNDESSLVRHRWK
Sequence of human BACE1 (amino acids 1–460) fused to the constant region of human IgG1 (hBACE1:Fc), wild type (P56817 22-460): as the sequence (P56817 22-460) above

B1: VHH‐B9 (VHH)
VHH: DVQLQESGGGSVQAGGSLRLSCAASEYTYGYCSMGWYRQAPGKERELVSTITSDGSTSYVDSVKGRFTISQDNAKNTVYLQMNSLKPEDTAKYYCYTKTCANKLGAKFISWGQGTQVTVSS
notes: Recombinant form used in SPR, BLI, dot blot (detected by anti-His) and the cleavage assays; source: E. coli WK6 (pHEN6), periplasmic extract, purified (Ni-NTA, Superdex-75); not shown: His6, C-terminal, kept
Consider B1, for which the Kd in experiment [1] came to 1.9 nM; with biotinylated human BACE1 it was 2.9 nM; with biotinylated mouse BACE1 [4] it was 3.2 nM; in experiment [5], 3.7 nM. Besides, the koff was determined as 0.00013 s⁻¹ in experiment [1], 0.000443 s⁻¹ with biotinylated human BACE1, 0.00072 s⁻¹ with biotinylated mouse BACE1 [4] and 0.00098 s⁻¹ in experiment [5]. For the same molecule, the kon in experiment [1] stood at 662000 M⁻¹ s⁻¹; in the experiment with biotinylated human BACE1, 153000 M⁻¹ s⁻¹; with biotinylated mouse BACE1 [4] it was 224000 M⁻¹ s⁻¹; in experiment [5], 267000 M⁻¹ s⁻¹. The binding result with mouse BACE2 is “no binding (tested: 100 nM)”. Besides, the “EC50 of inhibition of hBACE1:Fc in the in vitro APP cleavage assay (MBP-C125sw substrate, cleavage product by ELISA)” value in experiment [2] was found to be 99.2 nM. For the same molecule, in the experiment with biotinylated mouse BACE1 [3], the “EC50 of lowering Aβ1-40 (ELISA of conditioned medium) in primary mouse neurons expressing human APP695, VHH-B9 from 10 µM to 0.7 nM” value stood at 85.4 nM.

B2: VHH‐4A2 (VHH)
VHH: QVQLQESGGGLVQPGGSLRLSCAASGFTFETQYMTWVRQAPGKGPEYVSSINSGGTIKYYANSSVKGRFTISRDNAKNTLYLQMNNLRPEDTAIYYCQLGQWAGVGAASSRGQGTQVTVSS
In experiment [1], B2 came in with a Kd of 21.2 nM, a koff of 0.00841 s⁻¹ and an on-rate (kon) of 397000 M⁻¹ s⁻¹. The EC50 of inhibition of hBACE1:Fc in the in vitro APP cleavage assay (MBP-C125sw substrate, cleavage product by ELISA) in experiment [6] was 789 nM. In experiment [5], this molecule registered a dissociation constant (Kd) of 48.2 nM, a koff of 0.0231 s⁻¹ and a kon of 479000 M⁻¹ s⁻¹.

B3: VHH‐10C4 (VHH)
VHH: QVQLQESGGGSVQAGGFLRLSCAASGYTYSTCSMAWYRQAPGKERELVSSIRNDGSTAYADSVKGRFTISQDNAKNTVYLQMNSLKPEDTAMYYCNIRIGVGPGGTCSIYAPYWGEGTQVTVSS
Regarding B3, in experiment [1], the Kd amounted to 27.7 nM, the off-rate (koff) came out at 0.0125 s⁻¹ and the kon is 451000 M⁻¹ s⁻¹. Besides, the EC50 of inhibition of hBACE1:Fc in the in vitro APP cleavage assay (MBP-C125sw substrate, cleavage product by ELISA) in experiment [6] is 112 nM. In experiment [5], the Kd came out at 74.7 nM, the koff was 0.00792 s⁻¹ and the kon was found to be 106000 M⁻¹ s⁻¹.

Values taken from article PMC8988209, “AAV‐mediated delivery of an anti‐BACE1 VHH alleviates pathology in an Alzheimer's disease model” (EMBO Molecular Medicine, 2022).
